Assay results published in PMC7725785, “TRIB3 promotes MYC-associated lymphoma development through suppression of UBE3B-mediated MYC degradation” (Nature Communications, 2020).
Where no end group is shown, it is not given here. [ ]: non-standard residue; d: D form.

T1: UBE3B (His-tagged), recombinant (human, UniProt Q7Z3V4 1-1068)
T1 construct: recombinant UBE3B; also called purified UBE3B; source: Freestyle 293-F cells, transient transfection, purified (Ni-NTA, Superdex 200)
T1 sequence (looked up): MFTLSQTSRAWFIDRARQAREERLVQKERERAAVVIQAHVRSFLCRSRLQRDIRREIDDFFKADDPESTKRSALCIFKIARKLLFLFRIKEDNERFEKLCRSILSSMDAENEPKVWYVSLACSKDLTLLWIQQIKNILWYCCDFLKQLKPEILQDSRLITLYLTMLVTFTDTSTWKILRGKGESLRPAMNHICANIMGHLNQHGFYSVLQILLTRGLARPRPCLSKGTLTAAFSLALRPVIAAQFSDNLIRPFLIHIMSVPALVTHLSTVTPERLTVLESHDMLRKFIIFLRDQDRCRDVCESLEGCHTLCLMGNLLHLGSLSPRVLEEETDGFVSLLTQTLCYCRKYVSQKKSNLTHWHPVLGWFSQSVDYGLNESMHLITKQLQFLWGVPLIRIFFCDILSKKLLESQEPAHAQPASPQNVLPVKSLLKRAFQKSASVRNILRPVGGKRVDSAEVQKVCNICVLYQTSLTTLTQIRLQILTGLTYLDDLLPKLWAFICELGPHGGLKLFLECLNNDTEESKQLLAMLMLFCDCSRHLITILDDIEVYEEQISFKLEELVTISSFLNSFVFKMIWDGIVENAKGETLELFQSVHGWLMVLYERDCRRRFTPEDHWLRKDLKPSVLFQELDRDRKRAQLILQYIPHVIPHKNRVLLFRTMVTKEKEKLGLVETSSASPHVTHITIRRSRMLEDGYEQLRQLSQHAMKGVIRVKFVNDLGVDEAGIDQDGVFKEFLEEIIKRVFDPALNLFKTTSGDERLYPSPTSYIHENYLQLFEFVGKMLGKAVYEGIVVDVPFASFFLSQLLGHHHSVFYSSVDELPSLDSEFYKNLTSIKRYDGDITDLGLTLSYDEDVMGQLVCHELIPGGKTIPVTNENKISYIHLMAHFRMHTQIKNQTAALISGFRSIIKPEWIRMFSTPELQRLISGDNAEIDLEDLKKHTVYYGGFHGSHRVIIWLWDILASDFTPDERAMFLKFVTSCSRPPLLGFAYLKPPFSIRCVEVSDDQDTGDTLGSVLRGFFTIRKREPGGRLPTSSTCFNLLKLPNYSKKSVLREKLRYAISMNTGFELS

T2: GST-tagged TRIB3 (human, UniProt Q96RU7 1-358)
T2 construct: purified recombinant TRIB3; also called TRIB3-GST; TRIB3 protein; source: bought: Sinobiological (10731-H09B), purified
T2 sequence (looked up): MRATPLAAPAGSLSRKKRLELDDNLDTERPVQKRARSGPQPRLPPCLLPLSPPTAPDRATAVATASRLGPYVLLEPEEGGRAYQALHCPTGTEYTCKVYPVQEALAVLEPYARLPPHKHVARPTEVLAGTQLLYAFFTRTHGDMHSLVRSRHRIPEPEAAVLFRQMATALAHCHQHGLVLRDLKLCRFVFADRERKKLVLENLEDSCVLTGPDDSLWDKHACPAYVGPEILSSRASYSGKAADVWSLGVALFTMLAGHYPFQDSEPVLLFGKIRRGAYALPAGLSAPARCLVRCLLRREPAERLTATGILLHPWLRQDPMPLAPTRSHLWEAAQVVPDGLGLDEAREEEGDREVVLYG

B1: purified His-tagged UBCH3 (enzyme, UniProt P49427 1-236, looked up)
chain: MARPLVPSSQKALLLELKGLQEEPVEGFRVTLVDEGDLYNWEVAIFGPPNTYYEGGYFKARLKFPIDYPYSPPAFRFLTKMWHPNIYETGDVCISILHPPVDDPQSGELPSERWNPTQNVRTILLSVISLLNEPNTFSPANVDASVMYRKWKESKGKDREYTDIIRKQVLGTKVDAERDGVKVPTTLAEYCVKTKAPAPDEGSDLFYDDYYEDGEVEEEADSCFGDDEDDSGTEES
notes: UBCH3 (CDC34), purified; also called UBCH3 (E2); UHCH3
B2: CM4 peptide (peptide)
peptide: [dK][dR][dR][dE][dQ][dL][dK][dH][dK][dL][dE][dQ][dL][dR]
notes: α-helical peptide derived from the C terminus of MYC; source: synthetic peptide (Chinese Peptide Inc., >98% purity)

Assays:
[1] = biological target: T1, UBE3B (His-tagged), recombinant; assay: co-IP; in vitro co-IP: purified His-tagged UBCH3 (5 μg) and His-tagged UBE3B (5 μg) with GST-tagged TRIB3 or the KD(C) domain; 1% NP-40, 120 mM NaCl, 40 mM tris-HCl pH 7.4, 6 h at 4 °C; conditions: both partners purified
[2] = biological target: T2, GST-tagged TRIB3; assay: SPR; BIAcore T200; TRIB3 immobilised directly on a CM5 chip; 0–200 nM peptide passed over; HBS-EP pH 7.4, 25 °C, 25 μl/min; conditions: both partners purified

Binder	binding result [1]	Kd [2] [nM]
B1	binds	
B2		76.4
